Source: publication PMC12059179, “A short intrinsically disordered region at KtrB’s N-terminus facilitates allosteric regulation of K^+ channel KtrAB” (Nature Communications, 2025)

B1: KtrB from Vibrio alginolyticus with deletion of residues 2-19 (natural protein)
chain: MAKGGEPRIILLSFLGVLLPSAVLLTLPVFSVSGLSITDALFTATSAISVTGLGVVDTGQHFTLAGKILLMCLMQIGGLGQMTLSAVLLYMFGVRLSLRQQALAKEALGQERQVNLRRLVKKIVTFALVAEAIGFVFLSYRWVPEMGWQTGMFYALFHSISAFNNAGFALFSDSMMSFVNDPLVSFTLAGLFIFGGLGFTVIGDVWRHWRKGFHFLHIHTKIMLIATPLLLLVGTVLFWLLERHNPNTMGSLTTGGQWLAAFFQSASARTAGFNSVDLTQFTQPALLIMIVLMLIGAGSTSTGGGIKVSTFAVAFMATWTFLRQKKHVVMFKRTVNWPTVTKSLAIIVVSGAILTTAMFLLMLTEKASFDKVMFETISAFATVGLTAGLTAELSEPGKYIMIVVMIIGRIGPLTLAYMLARPEPTLIKYPEDTVLTG
notes: KtrB, Vibrio alginolyticus, with the N-terminal residues 2-19 deleted; Two KtrB dimers stand in the solved assembly: KtrBΔ2-19_(4)A8, deposited as KtrB2A8B2 with the N-terminal KtrB deletion; also called KtrBΔ2-19; KtrAB_(Δ2-19); source: purified as a complex with KtrA (SEC)
B2: KtrB from Vibrio alginolyticus, tagless, full length (natural protein, UniProt O87953 1-455, looked up)
chain: MTQFHQRGVFYVPDGKRDKAKGGEPRIILLSFLGVLLPSAVLLTLPVFSVSGLSITDALFTATSAISVTGLGVVDTGQHFTLAGKILLMCLMQIGGLGQMTLSAVLLYMFGVRLSLRQQALAKEALGQERQVNLRRLVKKIVTFALVAEAIGFVFLSYRWVPEMGWQTGMFYALFHSISAFNNAGFALFSDSMMSFVNDPLVSFTLAGLFIFGGLGFTVIGDVWRHWRKGFHFLHIHTKIMLIATPLLLLVGTVLFWLLERHNPNTMGSLTTGGQWLAAFFQSASARTAGFNSVDLTQFTQPALLIMIVLMLIGAGSTSTGGGIKVSTFAVAFMATWTFLRQKKHVVMFKRTVNWPTVTKSLAIIVVSGAILTTAMFLLMLTEKASFDKVMFETISAFATVGLTAGLTAELSEPGKYIMIVVMIIGRIGPLTLAYMLARPEPTLIKYPEDTVLTG
notes: KtrB, transmembrane pore-forming subunit of the K+ channel KtrAB, Vibrio alginolyticus; C-terminal residue G455; Homodimer; It was in DDM for the deposited structures and in MSP2N2 nanodiscs with E. coli polar lipids for one cryo-EM data set; also called VaKtrB; KtrB dimer; source: E. coli LB2003, membranes mixed with KtrA-containing cytosol, solubilised in DDM, co-purified with KtrA (Ni-NTA, …)

Legend:
[1] = target: T1, KtrAB (KtrB2A8B2 complex) (Vibrio alginolyticus, UniProt O87952); assay: cryo-EM structure, […] Å; assay type: binding; settings: ADP found despite ATP agarose and ATP in the sample; Mg2+ at alpha-phosphate
T1 construct: gene ktrA; nonphysiological assembly with a second KtrB dimer on the KtrA octamer; full-length, in DDM; wild type purified via ATP agarose; KtrA C-terminal His tag removed by 3C protease; with Ktr system potassium uptake protein B
T1 sequence (O87952 1-220): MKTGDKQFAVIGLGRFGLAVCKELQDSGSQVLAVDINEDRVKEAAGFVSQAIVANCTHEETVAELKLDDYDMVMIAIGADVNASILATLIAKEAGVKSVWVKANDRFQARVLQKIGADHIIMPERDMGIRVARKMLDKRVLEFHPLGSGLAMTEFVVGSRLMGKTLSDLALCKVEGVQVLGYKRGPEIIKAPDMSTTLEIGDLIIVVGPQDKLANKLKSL
T1 sequence (O87953 1-455 partner): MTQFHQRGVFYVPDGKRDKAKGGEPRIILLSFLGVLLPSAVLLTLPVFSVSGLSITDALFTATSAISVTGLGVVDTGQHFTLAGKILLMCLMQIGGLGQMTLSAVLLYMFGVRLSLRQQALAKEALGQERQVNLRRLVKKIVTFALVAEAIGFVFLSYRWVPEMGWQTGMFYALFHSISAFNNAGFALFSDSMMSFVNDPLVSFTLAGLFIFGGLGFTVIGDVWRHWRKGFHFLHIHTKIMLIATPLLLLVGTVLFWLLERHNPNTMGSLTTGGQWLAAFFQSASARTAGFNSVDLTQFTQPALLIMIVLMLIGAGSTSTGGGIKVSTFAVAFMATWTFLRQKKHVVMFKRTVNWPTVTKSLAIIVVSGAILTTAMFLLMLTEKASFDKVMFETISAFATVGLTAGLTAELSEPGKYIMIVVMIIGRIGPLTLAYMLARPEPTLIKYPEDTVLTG

KtrA (VaKtrA, KtrAC3H) [2] = target: T2, KtrA (VaKtrA, KtrAC3H) (Vibrio alginolyticus, UniProt O87952); assay: isothermal titration calorimetry; assay type: binding; settings: pH 8, 24 °C, 20 mM HEPES, 140 mM NaCl, 60 mM KCl; one-site fit; no KtrB
T2 construct: full-length cytosolic RCK subunit, C-terminal 3C-cleavable His tag (KtrAC3H), eluted with imidazole (tag kept), expressed in E. coli C43(DE3)ΔacrAB; homooctameric ring
T2 sequence (O87952 1-220): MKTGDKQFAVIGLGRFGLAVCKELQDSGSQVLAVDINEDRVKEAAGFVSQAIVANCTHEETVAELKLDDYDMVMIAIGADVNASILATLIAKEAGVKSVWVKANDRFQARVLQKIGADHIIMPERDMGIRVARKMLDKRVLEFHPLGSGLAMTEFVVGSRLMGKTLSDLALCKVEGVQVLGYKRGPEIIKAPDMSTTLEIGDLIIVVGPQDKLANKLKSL

KtrA (VaKtrA, KtrAC3H) [3] = target: T2, KtrA (VaKtrA, KtrAC3H); assay: differential scanning fluorimetry (SYPRO Orange); assay type: binding; settings: pH 7.5, 20 mM Tris-HCl, 140 mM NaCl, 60 mM KCl; 5 µM KtrA; melting temperature with ligand, not a shift
[4] = target: T3, KtrAB (native KtrB2A8 complex) (Vibrio alginolyticus, UniProt O87952); assay: cryo-EM structure, […] Å; assay type: binding; settings: co-purified ADP, sample prepared with ATP and MgCl2
T3 construct: gene ktrA; full-length complex in DDM; tagless KtrB membranes (E. coli LB2003) mixed with KtrA (C-terminal His tag, removed by 3C protease); KtrA octamer with one KtrB dimer; with Ktr system potassium uptake protein B
T3 sequence (O87952 1-220): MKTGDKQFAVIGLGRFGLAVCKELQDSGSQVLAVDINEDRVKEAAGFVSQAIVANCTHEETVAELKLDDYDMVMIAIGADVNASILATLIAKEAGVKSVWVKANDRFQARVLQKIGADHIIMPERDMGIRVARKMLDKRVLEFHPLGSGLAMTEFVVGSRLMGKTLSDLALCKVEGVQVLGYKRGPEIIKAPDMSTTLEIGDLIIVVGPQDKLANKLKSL
T3 sequence (O87953 1-455 partner): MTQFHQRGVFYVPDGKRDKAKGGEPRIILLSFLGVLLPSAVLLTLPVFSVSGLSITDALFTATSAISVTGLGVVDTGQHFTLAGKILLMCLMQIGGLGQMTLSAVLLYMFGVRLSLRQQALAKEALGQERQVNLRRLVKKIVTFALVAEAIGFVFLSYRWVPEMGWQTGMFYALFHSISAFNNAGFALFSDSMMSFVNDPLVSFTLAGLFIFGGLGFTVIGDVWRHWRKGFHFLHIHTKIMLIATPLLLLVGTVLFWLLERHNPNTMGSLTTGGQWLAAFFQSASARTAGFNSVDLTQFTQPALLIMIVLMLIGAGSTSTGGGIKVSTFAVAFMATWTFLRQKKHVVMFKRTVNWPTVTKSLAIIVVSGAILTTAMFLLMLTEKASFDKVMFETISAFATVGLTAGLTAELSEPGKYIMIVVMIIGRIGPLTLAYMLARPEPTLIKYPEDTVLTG

[5] = target: the molecule itself; assay: cryo-EM structure; KtrAB with KtrB Δ2-19, KtrBΔ2-19_(4)A8 assembly, supplemented with 1 mM ATP, 3.6 Å, 58,000 particles
[6] = target: the molecule itself; assay: cryo-EM structure; natively assembled KtrB2A8 complex in DDM, 2.8 Å, C2 symmetry; sample supplemented with 1 mM ATP and 2 mM MgCl2, ADP found bound
[7] = target: B2; assay: as above; settings: both partners purified
[8] = target: the molecule itself; assay: cryo-EM structure; nonphysiological KtrB2A8B2 assembly purified via ATP agarose, in DDM, 2.5 Å, D2 symmetry; 1 mM ATP and 2 mM MgCl2, ADP found bound
[9] = target: B2; assay: as above; settings: both partners purified
[10] = target: B1; assay: cryo-EM structure; KtrAB with KtrB Δ2-19, KtrBΔ2-19_(4)A8 assembly, supplemented with 1 mM ATP, 3.6 Å, 58,000 particles; settings: both partners purified

Nc1ncnc2c1ncn2[C@@H]1O[C@H](COP(=O)(O)OP(=O)(O)O)[C@@H](O)[C@H]1O [ADP]
cryo-EM structure, 2.5 Å [1]: ADP molecules bound to the N lobes of each of the eight KtrA subunits
Kd (KtrA (VaKtrA, KtrAC3H) [2]): 3400 nM
Tm (KtrA (VaKtrA, KtrAC3H) [3]): 67 °C
cryo-EM structure, 2.8 Å [4]: KtrA ring contains non-protein densities corresponding to ADP molecules

Nc1ncnc2c1ncn2[C@@H]1O[C@H](COP(=O)(O)OP(=O)(O)OP(=O)(O)O)[C@@H](O)[C@H]1O [ATP]
Kd (KtrA (VaKtrA, KtrAC3H) [2]): 2400 nM
Tm (KtrA (VaKtrA, KtrAC3H) [3]): 55 °C

B1
binding result [5]: binds

B2
stoichiometry N [6]: 2

B3: KtrA from Vibrio alginolyticus, His tag cleaved off with 3C protease (natively assembled KtrB2A8 preparation) (natural protein, UniProt O87952 1-220, looked up)
chain: MKTGDKQFAVIGLGRFGLAVCKELQDSGSQVLAVDINEDRVKEAAGFVSQAIVANCTHEETVAELKLDDYDMVMIAIGADVNASILATLIAKEAGVKSVWVKANDRFQARVLQKIGADHIIMPERDMGIRVARKMLDKRVLEFHPLGSGLAMTEFVVGSRLMGKTLSDLALCKVEGVQVLGYKRGPEIIKAPDMSTTLEIGDLIIVVGPQDKLANKLKSL
notes: KtrA, cytosolic RCK subunit of the K+ channel KtrAB, Vibrio alginolyticus; full-length KtrAB; Residues of the 3C site may remain at the C-terminus after cleavage; also called VaKtrA; KtrAC3H; source: E. coli C43(DE3)ΔacrAB; not shown: His tag, C-terminal, cleaved
stoichiometry N [6]: 8
binding result [7]: binds

B4: KtrA from Vibrio alginolyticus with C-terminal His tag (KtrAC3H), eluted with imidazole (natural protein, UniProt O87952 1-220, looked up)
chain: MKTGDKQFAVIGLGRFGLAVCKELQDSGSQVLAVDINEDRVKEAAGFVSQAIVANCTHEETVAELKLDDYDMVMIAIGADVNASILATLIAKEAGVKSVWVKANDRFQARVLQKIGADHIIMPERDMGIRVARKMLDKRVLEFHPLGSGLAMTEFVVGSRLMGKTLSDLALCKVEGVQVLGYKRGPEIIKAPDMSTTLEIGDLIIVVGPQDKLANKLKSL
notes: KtrA, cytosolic RCK subunit of the K+ channel KtrAB, Vibrio alginolyticus; full-length KtrAB; Same construct as m1; Here no 3C cleavage is reported: imidazole elution for isolated KtrA, and imidazole removal is mentioned before the ATP agarose step; also called VaKtrA; isolated KtrA ring; source: E. coli C43(DE3)ΔacrAB, purified (Ni-NTA eluted with imidazole, SEC); for KtrB2A8B2 also ATP agarose
stoichiometry N [8]: 8
binding result [9]: binds
binding result [10]: binds
